Test results published in publication PMC8100066 (2021).

Target: mouse CSL (amino acid residues 53-474), conserved and structurally ordered core domain (mouse, UniProt P31266 53-474)
Experiment: ITC

Chain of mouse CSL (amino acid residues 53-474), conserved and structurally ordered core domain (P31266 53-474): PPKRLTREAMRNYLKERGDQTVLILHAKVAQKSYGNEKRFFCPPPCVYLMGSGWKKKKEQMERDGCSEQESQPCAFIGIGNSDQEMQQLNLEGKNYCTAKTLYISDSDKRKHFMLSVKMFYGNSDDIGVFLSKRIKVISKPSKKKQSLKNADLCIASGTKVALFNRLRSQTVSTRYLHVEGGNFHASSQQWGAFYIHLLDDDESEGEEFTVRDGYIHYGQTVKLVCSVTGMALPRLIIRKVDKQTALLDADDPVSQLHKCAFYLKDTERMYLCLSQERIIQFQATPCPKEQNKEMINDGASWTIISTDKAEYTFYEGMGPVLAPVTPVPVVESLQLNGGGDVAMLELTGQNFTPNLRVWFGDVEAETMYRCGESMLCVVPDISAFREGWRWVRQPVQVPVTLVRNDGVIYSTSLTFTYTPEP

Ka [M⁻¹]	Binder
4.63e+07	VLLSRKRRRQHGQLWFPEGFKVSEASKK [human NOTCH1 RAM peptide (residues 1754-1781)]
5.49e+06	ARRKREHSTLWFPEGFKV [human NOTCH3 RAM peptide (residues 1665-1682), nonphosphorylated]
